Data taken from CN115819579A (UNIV ZHEJIANG, dated 2023).

Legend:
IL-17A重组蛋白 = molecular target: T1, IL-17A重组蛋白 (UniProt Q16552 24-155, limits assumed); assay: BLI (Fortebio)
T1 construct: also called 重组蛋白IL-17A; IL-17A抗原
T1 sequence (looked up): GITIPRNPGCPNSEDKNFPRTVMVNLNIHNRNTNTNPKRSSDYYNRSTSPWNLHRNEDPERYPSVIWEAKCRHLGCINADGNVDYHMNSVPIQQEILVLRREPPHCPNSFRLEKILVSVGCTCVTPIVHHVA

牛血清白蛋白(BSA) = molecular target: T2, 牛血清白蛋白(BSA) (bovine, UniProt P02769 25-607); assay: ELISA, BSA coated at 1 μg/ml, anti-His detection, OD450
T2 construct: Control antigen of the specificity ELISA
T2 sequence (P02769 25-607 limits assumed): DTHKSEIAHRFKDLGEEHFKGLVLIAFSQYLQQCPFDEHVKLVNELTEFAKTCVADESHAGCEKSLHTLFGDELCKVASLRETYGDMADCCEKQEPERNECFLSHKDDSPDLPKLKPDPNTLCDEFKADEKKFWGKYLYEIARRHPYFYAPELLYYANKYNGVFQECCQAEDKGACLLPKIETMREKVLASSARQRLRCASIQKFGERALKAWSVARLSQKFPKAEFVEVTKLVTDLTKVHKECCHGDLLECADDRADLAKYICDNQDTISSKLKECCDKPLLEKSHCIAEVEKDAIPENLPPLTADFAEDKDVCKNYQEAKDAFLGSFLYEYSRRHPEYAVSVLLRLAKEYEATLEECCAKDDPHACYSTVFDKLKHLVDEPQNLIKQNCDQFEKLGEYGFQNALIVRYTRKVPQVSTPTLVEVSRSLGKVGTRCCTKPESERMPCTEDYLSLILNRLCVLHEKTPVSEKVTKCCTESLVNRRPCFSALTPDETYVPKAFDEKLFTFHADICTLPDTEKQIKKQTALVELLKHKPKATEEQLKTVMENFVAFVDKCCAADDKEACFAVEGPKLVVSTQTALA

Kd (IL-17A重组蛋白): 110 nM
binding result (牛血清白蛋白(BSA)): no binding (tested: 0.1μg/ml)
B1: 全人源抗IL-17A单链抗体No.34 (scFv)
scFv: MQVQLVQSGAEVKPPGASVKVSCKASGYTFTTHKIQWVRQAPGQRLEWMGWINTDKGDTKYSQKFQGRVTITSDTSASTAFMDLSSLRSEDTAVYYCARDGEGYAPFGMDVWGQGTTVTVSSGGGGSGGGGSGGGGSDIRLTQSPPSLSASVGDRVTITCRASQTIGSHLNWYQQKPGKAPKLLIYAASSLQSGVPSRFSGSGSGTDFTLTISSLQPEDFATYYCQQSHSGLTFGGGTKVDIK
notes: also called anti-IL-17A scFv No.34; Anti-IL-17A scFv No.34
